Laboratory results as given in patent US20250382373A1, “ANTI-EGFR/MET ANTIBODIES AND USES THEREOF” (Biocytogen Pharmaceuticals (Beijing) Co., Ltd., priority 2022, published 2025).
pKd: −log10 of the molar value. Where two headings read alike, the source gives them in different places.

Legend:
[1] = biological target: monkey MET on fasMET-NIH3T3 cells (monkey (Macaca fascicularis)); experiment: flow cytometry on fasMET-NIH3T3 cells (evaluated as No binding)
[2] = biological target: monkey EGFR on CHO-S-fasEGFR cells (monkey (crab-eating macaque; Macaca fascicularis)) (UniProt P55245); experiment: flow cytometry on CHO-S-fasEGFR cells (evaluated as No binding)
[3] = biological target: monkey MET on fasMET-NIH3T3 cells (monkey (Macaca fascicularis)); experiment: flow cytometry on fasMET-NIH3T3 cells (evaluated as No binding); remark: listed apart in the source
[4] = biological target: monkey EGFR on CHO-S-fasEGFR cells (monkey (crab-eating macaque; Macaca fascicularis)) (UniProt P55245); experiment: flow cytometry on CHO-S-fasEGFR cells (evaluated as No binding); remark: listed apart in the source
[5] = biological target: human MET on hMET-NIH3T3 cells (human) (UniProt P08581); experiment: flow cytometry on hMET-NIH3T3 cells (evaluated as No binding)
[6] = biological target: human EGFR on CHO-S-hEGFR cells (human) (UniProt P00533); experiment: flow cytometry on CHO-S-hEGFR cells (evaluated as No binding)
[7] = biological target: dog MET on dMET-NIH3T3 cells (dog (Canis lupus, printed 'Cans lupus')) (UniProt Q75ZY9); experiment: flow cytometry on dMET-NIH3T3 cells (evaluated as No binding)
[8] = biological target: human MET on SNU-5 cells (human) (UniProt P08581); experiment: flow cytometry on SNU-5 cells (evaluated as No binding)
[9] = biological target: His-tagged monkey MET (monkey); experiment: SPR (Biacore 8K), Protein A chip

Chain of monkey MET on fasMET-NIH3T3 cells (monkey (Macaca fascicularis)) (chain, as listed by the source limits assumed): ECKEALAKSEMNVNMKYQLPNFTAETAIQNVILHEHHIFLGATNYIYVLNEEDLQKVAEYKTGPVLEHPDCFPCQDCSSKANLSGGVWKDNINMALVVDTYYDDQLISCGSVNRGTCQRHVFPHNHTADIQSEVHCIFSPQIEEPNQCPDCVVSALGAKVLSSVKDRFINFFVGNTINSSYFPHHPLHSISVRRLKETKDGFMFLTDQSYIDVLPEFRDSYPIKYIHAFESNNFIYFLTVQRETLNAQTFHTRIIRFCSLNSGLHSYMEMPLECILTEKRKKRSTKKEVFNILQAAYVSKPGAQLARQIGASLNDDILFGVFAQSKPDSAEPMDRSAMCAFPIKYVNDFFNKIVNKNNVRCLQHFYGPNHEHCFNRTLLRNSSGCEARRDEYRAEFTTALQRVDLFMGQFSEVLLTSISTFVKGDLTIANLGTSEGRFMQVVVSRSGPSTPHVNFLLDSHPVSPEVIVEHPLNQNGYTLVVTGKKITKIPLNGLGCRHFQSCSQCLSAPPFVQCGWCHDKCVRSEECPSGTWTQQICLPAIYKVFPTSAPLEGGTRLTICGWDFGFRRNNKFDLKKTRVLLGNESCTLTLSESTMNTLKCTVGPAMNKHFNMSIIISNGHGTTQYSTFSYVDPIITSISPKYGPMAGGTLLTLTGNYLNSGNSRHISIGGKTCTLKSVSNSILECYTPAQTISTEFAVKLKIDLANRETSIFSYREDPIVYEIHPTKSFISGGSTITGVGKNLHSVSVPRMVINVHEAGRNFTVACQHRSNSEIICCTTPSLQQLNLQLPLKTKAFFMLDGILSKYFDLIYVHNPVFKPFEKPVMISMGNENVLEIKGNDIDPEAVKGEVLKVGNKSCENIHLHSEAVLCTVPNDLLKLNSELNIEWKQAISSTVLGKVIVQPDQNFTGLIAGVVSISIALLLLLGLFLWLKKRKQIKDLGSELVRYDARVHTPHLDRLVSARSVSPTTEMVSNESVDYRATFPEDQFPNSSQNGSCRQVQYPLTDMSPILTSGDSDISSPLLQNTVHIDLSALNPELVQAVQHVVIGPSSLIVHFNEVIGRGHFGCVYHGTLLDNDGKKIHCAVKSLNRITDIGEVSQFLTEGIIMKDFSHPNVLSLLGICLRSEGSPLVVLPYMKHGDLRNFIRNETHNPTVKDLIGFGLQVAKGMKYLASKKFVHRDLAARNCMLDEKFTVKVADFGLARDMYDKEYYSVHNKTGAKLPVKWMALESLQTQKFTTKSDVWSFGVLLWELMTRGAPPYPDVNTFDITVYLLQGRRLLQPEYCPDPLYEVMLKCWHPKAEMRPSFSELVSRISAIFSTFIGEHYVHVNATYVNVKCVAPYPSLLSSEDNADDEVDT
Chain of human MET on hMET-NIH3T3 cells (human) (P08581 25-1390 limits assumed): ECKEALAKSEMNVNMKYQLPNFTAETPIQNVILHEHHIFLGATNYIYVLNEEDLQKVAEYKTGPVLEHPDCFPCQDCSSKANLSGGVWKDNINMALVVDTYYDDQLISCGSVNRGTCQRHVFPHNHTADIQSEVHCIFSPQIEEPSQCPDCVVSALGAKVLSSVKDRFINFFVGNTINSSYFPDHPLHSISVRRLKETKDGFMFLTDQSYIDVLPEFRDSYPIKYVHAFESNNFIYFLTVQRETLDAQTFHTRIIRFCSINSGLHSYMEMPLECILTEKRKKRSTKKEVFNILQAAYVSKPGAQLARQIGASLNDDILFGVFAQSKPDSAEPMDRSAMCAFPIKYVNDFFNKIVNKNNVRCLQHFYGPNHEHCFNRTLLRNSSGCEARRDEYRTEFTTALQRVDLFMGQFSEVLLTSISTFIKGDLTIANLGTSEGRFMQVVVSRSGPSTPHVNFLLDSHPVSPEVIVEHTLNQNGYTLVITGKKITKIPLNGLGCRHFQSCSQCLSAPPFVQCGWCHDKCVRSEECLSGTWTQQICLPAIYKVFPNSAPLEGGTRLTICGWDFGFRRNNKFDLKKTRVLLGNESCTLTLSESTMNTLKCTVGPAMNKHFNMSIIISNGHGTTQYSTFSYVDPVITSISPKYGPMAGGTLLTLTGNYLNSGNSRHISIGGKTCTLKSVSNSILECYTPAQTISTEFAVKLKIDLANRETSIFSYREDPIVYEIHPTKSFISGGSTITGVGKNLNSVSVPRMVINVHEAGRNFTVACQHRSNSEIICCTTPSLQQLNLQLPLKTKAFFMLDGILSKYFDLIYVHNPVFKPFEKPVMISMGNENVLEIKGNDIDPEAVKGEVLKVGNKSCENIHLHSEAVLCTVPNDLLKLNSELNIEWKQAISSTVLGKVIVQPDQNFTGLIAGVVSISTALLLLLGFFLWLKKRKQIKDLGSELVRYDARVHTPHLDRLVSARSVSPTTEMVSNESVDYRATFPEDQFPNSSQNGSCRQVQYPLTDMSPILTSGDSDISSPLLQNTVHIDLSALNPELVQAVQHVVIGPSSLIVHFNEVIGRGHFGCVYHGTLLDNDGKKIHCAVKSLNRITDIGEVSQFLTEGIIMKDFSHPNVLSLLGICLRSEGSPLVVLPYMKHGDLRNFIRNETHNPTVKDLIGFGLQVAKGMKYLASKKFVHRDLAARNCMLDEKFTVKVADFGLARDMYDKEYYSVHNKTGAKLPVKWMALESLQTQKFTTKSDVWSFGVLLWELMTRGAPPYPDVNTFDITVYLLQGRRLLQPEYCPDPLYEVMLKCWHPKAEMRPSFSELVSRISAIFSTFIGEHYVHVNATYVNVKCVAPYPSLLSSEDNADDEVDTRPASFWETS
Chain of human MET on SNU-5 cells (human) (P08581 25-1390): as the sequence (P08581 25-1390 limits assumed) above

Percentage of Positive Cells [1] [%]	Percentage of Positive Cells [2] [%]	Percentage of Positive Cells [3] [%]	Percentage of Positive Cells [4] [%]	Percentage of Positive Cells [5] [%]	Percentage of Positive Cells [6] [%]	Percentage of Positive Cells [7] [%]	Percentage of Positive Cells [8] [%]	pKd [9]	koff [9] [s⁻¹]	kon [9] [M⁻¹ s⁻¹]	Substance
1.29	0.2	0.8	0.65	1.01	0	0.29	2.5				NC
								8.82	9.41e-05	62600	Telisotuzumab analog (antibody)
